From US6342219

Target: VEGF:Flk-1 complex (VEGF associated with sFlk-1) (human; mouse) (UniProt P15692)
Assay: capture ELISA; biotinylated sFlk-1 complexed with VEGF titrated onto antibody-coated wells; concentration giving 50% maximal binding; * extrapolated value

Chain of VEGF:Flk-1 complex (VEGF associated with sFlk-1) (human; mouse) (P15692 other isoform, or with tags, fused parts or gaps limits assumed, chain 1 of 2): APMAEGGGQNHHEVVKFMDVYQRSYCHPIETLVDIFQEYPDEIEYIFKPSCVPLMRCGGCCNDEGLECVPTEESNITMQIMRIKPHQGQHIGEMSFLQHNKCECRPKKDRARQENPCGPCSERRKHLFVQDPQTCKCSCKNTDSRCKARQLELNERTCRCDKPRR
Chain of VEGF:Flk-1 complex (VEGF associated with sFlk-1) (human; mouse) (P35918 20-762 limits assumed, chain 2 of 2, further chain): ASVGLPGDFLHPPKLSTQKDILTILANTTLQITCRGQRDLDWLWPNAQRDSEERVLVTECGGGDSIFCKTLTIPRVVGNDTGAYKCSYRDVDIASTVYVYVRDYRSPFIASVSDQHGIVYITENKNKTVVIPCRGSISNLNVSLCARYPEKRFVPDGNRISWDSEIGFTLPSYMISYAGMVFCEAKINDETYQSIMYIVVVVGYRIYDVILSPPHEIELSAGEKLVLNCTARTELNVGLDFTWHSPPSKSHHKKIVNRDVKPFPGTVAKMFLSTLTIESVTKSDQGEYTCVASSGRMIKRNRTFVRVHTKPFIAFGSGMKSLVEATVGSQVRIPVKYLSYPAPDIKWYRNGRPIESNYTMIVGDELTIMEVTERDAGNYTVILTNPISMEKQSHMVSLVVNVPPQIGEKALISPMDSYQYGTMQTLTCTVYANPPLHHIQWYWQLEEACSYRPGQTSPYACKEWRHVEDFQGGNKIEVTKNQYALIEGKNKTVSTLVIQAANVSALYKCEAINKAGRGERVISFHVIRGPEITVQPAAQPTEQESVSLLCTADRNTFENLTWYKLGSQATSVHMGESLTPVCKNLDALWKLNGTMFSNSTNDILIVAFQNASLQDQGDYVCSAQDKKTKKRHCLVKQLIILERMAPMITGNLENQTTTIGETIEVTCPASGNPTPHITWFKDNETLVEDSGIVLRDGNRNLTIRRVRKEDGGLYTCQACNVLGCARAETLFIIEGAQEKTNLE
Chain of A4.6.1 (mouse anti-human VEGF monoclonal antibody from Genentech) (VH): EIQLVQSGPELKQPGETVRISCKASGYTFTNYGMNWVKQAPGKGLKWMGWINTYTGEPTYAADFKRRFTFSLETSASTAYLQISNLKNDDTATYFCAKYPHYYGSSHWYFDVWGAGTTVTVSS
Chain of A4.6.1 (mouse anti-human VEGF monoclonal antibody from Genentech) (VL): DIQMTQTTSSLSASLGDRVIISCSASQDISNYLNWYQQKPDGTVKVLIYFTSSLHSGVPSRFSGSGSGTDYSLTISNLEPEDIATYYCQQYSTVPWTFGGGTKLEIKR

EC50: 0.5 µM
Substance: A4.6.1 (mouse anti-human VEGF monoclonal antibody from Genentech)
